Experimental findings from US20220143185A1, “ORALLY ACTIVE SMALL MOLECULE INHIBITOR OF PAI-1” (Northwestern University, priority 2019, published 2022) are described below.

The target in series [1] is T1, PCSK9 (Homo sapiens, UniProt Q8NBP7). Description: Plasma PCSK9 and PAI-1 levels in hypercholesterolemic patients treated with PCSK9 monoclonal antibodies. The following applies: before vs during treatment; for plasma PAI-1 levels: n=28, p=0.0029. The class given is in vivo. On the set-up: from tissue; host or cells: plasma of hypercholesterolemic patients. The procedure:
Plasma samples from hypercholesterolemic patients were obtained from the OHSU Center for Preventive Cardiology Registry and Biorepository, approved by OHSU Institutional Review Board (17329).
Total cholesterol was quantified in the murine plasma using an enzymatic determination (Pointe Scientific, Cat #C7510). The lipoprotein profile of the murine plasma samples was assessed running a fast-phase liquid chromatography (FPLC), in brief 100 μL of plasma (from one animal or a pool of several samples of the same conditions) were loaded to a Superose 6 column (GE HealthCare, Cat #29-0915-96) at a flow rate of 0.5 mL/min in running buffer (0.15M NaCl, 0.01M Na2HPO4 and 1 mM EDTA). Fractions were collected every minute for 41 minutes and analyzed for cholesterol concentrations as described above. Murine plasma PCSK9 levels were determined using an ELISA kit (MBL International, Cat #CY-80781). Murine PAI-1 levels were quantified using an ELISA kit (Molecular Innovations, Cat #MPAIKT-TOT). Murine PAI-1 activity levels were quantified by ELISA (Molecular Innovations, Cat #MPAIKT). Human PAI-1 levels were quantified by ELISA (Molecular Innovations, Cat #HPAIKT-TOT).
PAI-1 and PCSK9 levels were also quantified in plasma samples obtained from a human cohort with and without heart failure with preserved ejection fraction (HFpEF). There was again a positive correlation between PAI-1 and PCSK9 levels in these patients, similar to that in mice and in the Amish kindred (FIG. 19D, p<0.0001; R=0.351).

The target of series [2] is T1, PCSK9.

Regarding alirocumab, in the series with PCSK9 [1], the “total plasma PCSK9 levels” value is recorded as “large increase” and the “plasma PAI-1 levels” value was “significant reduction”.

On to “recombinant human low molecular weight urokinase”, for which the “proteolytic degradation of PCSK9 in vitro (Western blot for PCSK9, silver stain)” value with PCSK9 [2] was “efficiently promoted the proteolytic degradation of recombinant human PCSK9”.

B1: evolocumab (antibody, chains of the INN, looked up, V domains shown)
VH: EVQLVQSGAEVKKPGASVKVSCKASGYTLTSYGISWVRQAPGQGLEWMGWVSFYNGNTNYAQKLQGRGTMTTDPSTSTAYMELRSLRSDDTAVYYCARGYGMDVWGQGTTVTVSS
VL: ESALTQPASVSGSPGQSITISCTGTSSDVGGYNSVSWYQQHPGKAPKLMIYEVSNRPSGVSNRFSGSKSGNTASLTISGLQAEDEADYYCNSYTSTSMVFGGGTKLTVL
As for B1, in the series with PCSK9 [1], the “total plasma PCSK9 levels” value is recorded as “large increase” and the “plasma PAI-1 levels” value is on record as “significant reduction”.
